Results from the Human Domainome abundance scans (Beltran et al. 2025).
± gives the uncertainty stated by the source.

B1: Calcium-binding protein 2, residues 155 to 219; numbered along this chain, Q9NPB3 (parent)
chain: RELRDAFREFDTNGDGRISVGELRAALKALLGERLSQREVDEILQDVDLNGDGLVDFEEFVRMMS

Variants of: B1
Experiment: abundance fitness (aPCA) (normalised: wild type 0, dead -1); higher = more abundant; growth selection in yeast, the domain comes from the species named
Details: Homo sapiens

Abundance fitness of substitutions, site by site:
G21: Q -0.001 ± 0.11, V -0.061 ± 0.039, H -0.328 ± 0.3, S -0.026 ± 0.066, L -0.049 ± 0.043, D 0.141 ± 0.089, T 0.01 ± 0.069, I -0.134 ± 0.18, W -0.423 ± 0.2, K -0.193 ± 0.077, A 0 ± 0.055, R -0.196 ± 0.053, N -0.064 ± 0.1, M -0.09 ± 0.093, P 0.044 ± 0.052, C -0.244 ± 0.23, F 0.102 ± 0.29
L30: I -0.134 ± 0.16, Q 0.015 ± 0.094, P -0.158 ± 0.094, W -0.245 ± 0.055, C 0.057 ± 0.092, A -0.255 ± 0.072, V -0.053 ± 0.093, E -0.091 ± 0.1, F -0.17 ± 0.083, D -0.101 ± 0.27, T -0.008 ± 0.066, S -0.216 ± 0.11, K 0.134 ± 0.083, N 0.151 ± 0.1, R 0.069 ± 0.052, M -0.595 ± 0.35
E22: T -0.486 ± 0.082, M -0.535 ± 0.15, I -0.729 ± 0.34, C -0.469 ± 0.23, G 0.093 ± 0.11, P -1.05 ± 0.16, N -0.726 ± 0.35, Y -0.814 ± 0.14, D -0.49 ± 0.34, R -0.549 ± 0.061, A -0.342 ± 0.066, Q -0.357 ± 0.1, V -0.489 ± 0.074, W -0.837 ± 0.11
R17: I -0.141 ± 0.12, M -0.099 ± 0.096, L 0.045 ± 0.066, C 0.141 ± 0.088, V -0.158 ± 0.053, A 0.001 ± 0.058, P -0.701 ± 0.082, K 0.017 ± 0.11, Y -0.02 ± 0.29, Q -0.193 ± 0.11, N -0.14 ± 0.47, S -0.087 ± 0.078, T -0.217 ± 0.074, F -0.021 ± 0.16, G 0.045 ± 0.055, W -0.159 ± 0.067, E -0.295 ± 0.1
G32: Y -0.269 ± 0.32, N -0.246 ± 0.12, K -0.206 ± 0.1, L -0.64 ± 0.12, T -0.526 ± 0.15, E -0.522 ± 0.083, F -0.275 ± 0.12, V -0.429 ± 0.19, D -0.29 ± 0.17, P -0.026 ± 0.3, W -0.282 ± 0.1, M -0.567 ± 0.12, R -0.258 ± 0.067, C -0.514 ± 0.2, S -0.453 ± 0.083, I -0.438 ± 0.32
N13: S -0.555 ± 0.09, E -0.459 ± 0.1, C -0.489 ± 0.26, L -0.974 ± 0.1, R -0.477 ± 0.076, M -0.797 ± 0.093, V -0.668 ± 0.071, K -0.676 ± 0.13, D -0.019 ± 0.11, H -0.644 ± 0.087, T -0.404 ± 0.095, A -0.537 ± 0.084, Y -1.12 ± 0.34, P -0.811 ± 0.093, G -0.693 ± 0.12, Q -0.924 ± 0.14
E33: A 0.002 ± 0.056, K 0.037 ± 0.21, F -0.109 ± 0.16, M -0.049 ± 0.12, L -0.195 ± 0.059, I -0.074 ± 0.16, C 0.006 ± 0.094, D 0.074 ± 0.092
V20: C 0.061 ± 0.16, P 0.163 ± 0.11, G 0.004 ± 0.067, L 0.093 ± 0.05, H -0.043 ± 0.13, Q -0.005 ± 0.081, T -0.146 ± 0.12, M 0.066 ± 0.094, N 0.081 ± 0.3, S -0.164 ± 0.076, A -0.317 ± 0.092, K -0.639 ± 0.23
A26: E -0.86 ± 0.12, H -0.228 ± 0.15, L 0.073 ± 0.058, M 0.111 ± 0.11, N -0.266 ± 0.16, D -0.379 ± 0.27, K -0.587 ± 0.43, S -0.214 ± 0.072, V -0.095 ± 0.1, R -0.371 ± 0.069, G 0.05 ± 0.081, C 0.215 ± 0.11, T -0.268 ± 0.091, F -0.041 ± 0.29, P -0.251 ± 0.07, W -0.454 ± 0.097, Y -0.17 ± 0.1
K28: F -0.277 ± 0.27, G -0.077 ± 0.064, N -0.133 ± 0.17, C -0.01 ± 0.13, D 0.068 ± 0.26, T 0.002 ± 0.085, V 0.089 ± 0.07, Y -0.216 ± 0.35, I 0.013 ± 0.1, S -0.017 ± 0.074, M -0.051 ± 0.17, A 0.127 ± 0.31, L -0.07 ± 0.053
F10: S -0.148 ± 0.074, M -0.426 ± 0.12, V -0.048 ± 0.065, K -0.155 ± 0.12, P -0.864 ± 0.079, Q 0.156 ± 0.083, R -0.1 ± 0.059, L -0.449 ± 0.062, T -0.144 ± 0.096, W -0.076 ± 0.11
A25: M 0.019 ± 0.11, H -0.012 ± 0.13, E 0.096 ± 0.13, Y -0.159 ± 0.16, T -0.035 ± 0.11, N -0.109 ± 0.32, D 0.045 ± 0.082, S 0.084 ± 0.096, C 0.177 ± 0.14, V -0.035 ± 0.063, G 0.01 ± 0.061, R 0.051 ± 0.054, F -0.093 ± 0.25, P -0.022 ± 0.11, W -0.189 ± 0.075, Q -0.068 ± 0.15, L 0.139 ± 0.062
L31: R -0.043 ± 0.091, M 0.169 ± 0.067, Y -0.064 ± 0.18, E 0.069 ± 0.082, I -0.061 ± 0.14, A 0.127 ± 0.059, G 0.076 ± 0.048, V -0.048 ± 0.074, F 0.047 ± 0.13, D -0.164 ± 0.19, H -0.021 ± 0.13, T 0.074 ± 0.1, Q 0.086 ± 0.082, K 0.134 ± 0.095, P 0.028 ± 0.079, W -0.26 ± 0.16
T12: V -0.351 ± 0.072, G -0.04 ± 0.054, C -0.148 ± 0.1, N 0.007 ± 0.22, F -0.493 ± 0.18, H 0.039 ± 0.23, W -0.538 ± 0.11, R -0.201 ± 0.056, K -0.03 ± 0.15, D -0.42 ± 0.13, L -0.279 ± 0.07, P -0.695 ± 0.12, M -0.349 ± 0.087, Q -0.148 ± 0.13, S -0.035 ± 0.072, E -0.087 ± 0.13
L27: E -0.311 ± 0.077, N 0.088 ± 0.13, S 0.161 ± 0.06, Y -0.136 ± 0.28, V 0.092 ± 0.068, G 0.165 ± 0.052, W -0.137 ± 0.094, H -0.091 ± 0.15, M -0.025 ± 0.098, F 0.077 ± 0.083, P -0.495 ± 0.081, Q -0.095 ± 0.16, C 0.014 ± 0.091, K -0.006 ± 0.26, I 0.102 ± 0.11, T 0.064 ± 0.082, A 0.122 ± 0.073, R -0.192 ± 0.057, D -0.464 ± 0.14
G14: D -0.188 ± 0.17, M -0.308 ± 0.11, S -0.198 ± 0.083, W -0.718 ± 0.081, C -0.264 ± 0.18, E -0.165 ± 0.14, K 0.003 ± 0.11, Q 0.023 ± 0.077, V -0.672 ± 0.067, R -0.018 ± 0.058, L -0.226 ± 0.079, P -0.621 ± 0.081, T -0.547 ± 0.12
A29: W -0.034 ± 0.067, S -0.02 ± 0.089, F -0.208 ± 0.12, K 0.066 ± 0.14, V -0.27 ± 0.083, T -0.023 ± 0.07, L -0.051 ± 0.063, N -0.438 ± 0.28, I -0.204 ± 0.21, R 0.047 ± 0.054, Y -0.214 ± 0.21, H -0.149 ± 0.33, Q -0.04 ± 0.11, G -0.135 ± 0.053, D 0.063 ± 0.18, M -0.049 ± 0.12, C -0.31 ± 0.3, P -0.497 ± 0.089, E -0.096 ± 0.29
D11: V -1.02 ± 0.092, Q -0.434 ± 0.099, P -0.992 ± 0.13, E -0.972 ± 0.097, Y -0.651 ± 0.3, K -1.16 ± 0.26, S -0.633 ± 0.061, L -0.937 ± 0.099, R -1.18 ± 0.11, H -1.17 ± 0.26, T -0.769 ± 0.099, M -1.17 ± 0.21, C -0.546 ± 0.11, W -0.631 ± 0.095, A -0.677 ± 0.057
S19: F -0.462 ± 0.19, M -0.285 ± 0.39, H -0.459 ± 0.16, Q -0.584 ± 0.09, P -0.43 ± 0.081, G -0.045 ± 0.1, V -0.517 ± 0.061, Y -0.822 ± 0.28, L -0.532 ± 0.085, K -0.529 ± 0.1, N 0.049 ± 0.081, E -0.169 ± 0.1, W -0.58 ± 0.11, I -0.462 ± 0.17, R -0.687 ± 0.074, A -0.372 ± 0.098, T 0.227 ± 0.068, D -0.059 ± 0.19
G16: W -0.454 ± 0.091, C -0.527 ± 0.11, S -0.261 ± 0.055, M -0.376 ± 0.15, Y -0.743 ± 0.33, D 0.023 ± 0.12, P -1.19 ± 0.13, R -0.428 ± 0.06, I -1.2 ± 0.22, F -0.992 ± 0.31, E -0.1 ± 0.1, Q -0.223 ± 0.065, A -0.332 ± 0.046, V -1.14 ± 0.094, L -0.669 ± 0.064, H -0.897 ± 0.39
L23: F -0.235 ± 0.1, S -0.238 ± 0.15, C -0.139 ± 0.28, M 0.025 ± 0.094, V -0.133 ± 0.084, G -0.193 ± 0.07, T -0.023 ± 0.14, Y -0.249 ± 0.15, N -0.213 ± 0.096, E -0.663 ± 0.14, P -0.592 ± 0.12, A 0.118 ± 0.072, Q -0.468 ± 0.12
I18: T -0.763 ± 0.11, Y -0.592 ± 0.27, R -0.808 ± 0.073, G -0.97 ± 0.12, L 0.114 ± 0.054, D -0.965 ± 0.22, A -0.736 ± 0.095, H -0.917 ± 0.23, E -1.01 ± 0.17, V -0.045 ± 0.13, M 0.081 ± 0.065, P -1.15 ± 0.22, N -1.01 ± 0.33, F -0.747 ± 0.16, K -0.691 ± 0.17, C -0.311 ± 0.11
